Publication doi:10.1101/2021.12.20.473401

Molecular target: SARS-CoV spike glycoprotein (S) (SARS-CoV) (UniProt P59594)
Test: SPR

Question: For VHH-72, which Kd is on record?
Answer: 6.52 nM
